Assay results from paper PMC8776733, “In vivo spatiotemporal control of voltage-gated ion channels by using photoactivatable peptidic toxins” (Nature Communications, 2022).
Ends that are not written are not given here. * marks the point of attachment. Nvoc = Nvoc photocleavable protecting (caging) group on the Lys side chain, COc1cc(COC(=O)*)c([N+](=O)[O-])cc1OC

What was measured:
Assay type in all cases: cell-based
hKV1.2 = target: T1, hKV1.2 (Homo sapiens, UniProt P16389); assay: Photocontrol of KV1.2 current, automated patch-clamp; details: 100 nM; 365 nm, 45 mW/cm^2, 250 s
T1 construct: expressed in transfected cells; host or cells: CHO (transient)
T1 sequence (P16389 whole entry): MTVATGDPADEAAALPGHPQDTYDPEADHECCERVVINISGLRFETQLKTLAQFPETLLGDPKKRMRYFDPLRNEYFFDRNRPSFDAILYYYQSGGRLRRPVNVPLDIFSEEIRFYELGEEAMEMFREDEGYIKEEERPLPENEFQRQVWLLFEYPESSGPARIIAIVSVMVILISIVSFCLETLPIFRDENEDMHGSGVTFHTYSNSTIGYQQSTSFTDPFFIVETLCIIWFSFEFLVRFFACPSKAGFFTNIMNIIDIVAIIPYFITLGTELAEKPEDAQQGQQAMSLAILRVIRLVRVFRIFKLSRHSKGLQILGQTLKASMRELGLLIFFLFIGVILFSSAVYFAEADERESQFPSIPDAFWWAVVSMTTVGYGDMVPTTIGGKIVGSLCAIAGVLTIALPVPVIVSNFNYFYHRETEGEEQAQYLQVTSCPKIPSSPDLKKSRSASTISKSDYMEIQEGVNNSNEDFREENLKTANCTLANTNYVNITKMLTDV
Experimental: (§1) HEK293 cells stably expressing the hNaV1.1 (XM_011511604), hNaV1.2 (XM_017004655) or hNaV1.6 (XM_011538651) channels, CHO cells transiently expressing hKV1.2 (NG_027997.2) and CHO cells stably expressing hNaV1.7 (XM_011511618) or the hERG (NM_000238) channels were cultured in Dulbecco’s Modified Eagle’s Medium (DMEM) supplemented with 10% fetal bovine serum, 1 mM pyruvic acid, 4.5 g/L glucose, 4 mM glutamine, 800 µg/mL G418, 10 U/mL penicillin and 10 μg/mL streptomycin (Gibco, Grand Island, NY). All cell lines were incubated at 37 °C in a 5% CO2 atmosphere. For electrophysiological recordings, cells were detached with trypsin and floating single cells were diluted (~300,000 cells/mL) in medium contained (in mM): […], 4 KCl, 2 CaCl2, 1 MgCl2, 5 glucose, and 10 HEPES (pH 7.4, osmolarity 298 mOsm).
(§2) Automated patch-clamp recordings were performed using the SyncroPatch 384PE from Nanion (München, Germany). […] Current inhibition percentages were measured at equilibrium after 14 min peptide application time. […]
(§3) The pharmacology of HwTxIV-Nvoc, as well as the efficiency of the released product to block hNaV channels was studied using combined automated patch-clamp and UV illumination. After 2 min of control, HwTxIV-Nvoc was added to the external buffer and effects were recorded for 100 s prior to a 250 s-duration illumination for photocleavage induction of the caged compound. […]

hNaV1.6 = target: T2, hNaV1.6 (Homo sapiens, UniProt Q9UQD0); assay: Photoactivation by UV illumination combined with automated patch-clamp; details: 100 nM, illumination 4 min, 365 nm, 45 mW/cm2; n = 14
T2 construct: expressed in transfected cells
T2 sequence (Q9UQD0 whole entry): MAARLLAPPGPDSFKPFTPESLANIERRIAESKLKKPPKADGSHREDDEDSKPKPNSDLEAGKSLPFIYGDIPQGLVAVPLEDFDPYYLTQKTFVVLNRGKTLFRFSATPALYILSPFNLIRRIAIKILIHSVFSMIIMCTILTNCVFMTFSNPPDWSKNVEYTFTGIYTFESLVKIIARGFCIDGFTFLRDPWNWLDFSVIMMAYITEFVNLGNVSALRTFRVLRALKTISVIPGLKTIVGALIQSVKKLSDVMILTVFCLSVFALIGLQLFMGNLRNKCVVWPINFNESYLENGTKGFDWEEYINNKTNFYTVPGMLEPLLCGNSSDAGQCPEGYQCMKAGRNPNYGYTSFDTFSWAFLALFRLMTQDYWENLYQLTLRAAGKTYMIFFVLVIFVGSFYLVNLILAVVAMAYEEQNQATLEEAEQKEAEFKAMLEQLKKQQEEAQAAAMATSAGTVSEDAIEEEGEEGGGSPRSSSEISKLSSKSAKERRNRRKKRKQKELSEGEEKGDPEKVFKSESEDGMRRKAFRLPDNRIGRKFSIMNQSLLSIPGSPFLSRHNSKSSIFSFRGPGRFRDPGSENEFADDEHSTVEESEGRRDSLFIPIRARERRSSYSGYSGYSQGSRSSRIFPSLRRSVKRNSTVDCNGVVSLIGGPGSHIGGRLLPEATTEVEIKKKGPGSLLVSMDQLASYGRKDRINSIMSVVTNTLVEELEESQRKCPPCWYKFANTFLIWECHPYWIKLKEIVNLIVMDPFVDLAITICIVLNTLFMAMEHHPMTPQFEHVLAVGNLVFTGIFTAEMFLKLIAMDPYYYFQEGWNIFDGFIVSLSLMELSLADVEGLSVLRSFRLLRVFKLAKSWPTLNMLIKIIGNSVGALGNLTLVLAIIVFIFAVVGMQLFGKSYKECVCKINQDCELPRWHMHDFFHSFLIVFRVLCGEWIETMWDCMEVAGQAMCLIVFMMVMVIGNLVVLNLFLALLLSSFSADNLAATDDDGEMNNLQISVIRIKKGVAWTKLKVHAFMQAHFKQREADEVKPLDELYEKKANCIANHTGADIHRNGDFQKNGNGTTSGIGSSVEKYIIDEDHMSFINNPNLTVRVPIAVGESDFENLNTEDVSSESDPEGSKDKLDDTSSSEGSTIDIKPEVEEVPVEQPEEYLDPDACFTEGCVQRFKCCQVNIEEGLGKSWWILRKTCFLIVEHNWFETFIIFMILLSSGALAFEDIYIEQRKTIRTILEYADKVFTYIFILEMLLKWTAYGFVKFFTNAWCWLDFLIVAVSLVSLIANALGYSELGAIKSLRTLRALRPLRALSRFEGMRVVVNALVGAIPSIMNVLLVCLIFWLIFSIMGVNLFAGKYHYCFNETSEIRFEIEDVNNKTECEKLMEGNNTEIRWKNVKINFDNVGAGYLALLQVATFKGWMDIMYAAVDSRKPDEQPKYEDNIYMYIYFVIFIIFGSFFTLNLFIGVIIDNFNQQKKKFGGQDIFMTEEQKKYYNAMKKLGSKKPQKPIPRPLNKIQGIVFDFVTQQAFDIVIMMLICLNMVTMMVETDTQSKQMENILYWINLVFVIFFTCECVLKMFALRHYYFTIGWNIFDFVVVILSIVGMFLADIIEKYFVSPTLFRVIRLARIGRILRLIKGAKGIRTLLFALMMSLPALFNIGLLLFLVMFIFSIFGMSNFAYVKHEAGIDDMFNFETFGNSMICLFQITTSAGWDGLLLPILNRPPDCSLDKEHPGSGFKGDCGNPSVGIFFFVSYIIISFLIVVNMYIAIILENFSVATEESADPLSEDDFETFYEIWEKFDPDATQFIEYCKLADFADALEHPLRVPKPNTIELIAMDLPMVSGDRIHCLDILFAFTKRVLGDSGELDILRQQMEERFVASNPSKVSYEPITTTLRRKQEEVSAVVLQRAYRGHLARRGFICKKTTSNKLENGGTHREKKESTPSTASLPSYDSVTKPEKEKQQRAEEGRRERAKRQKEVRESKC
Experimental: as §1, §2, §3

hERG = target: T3, hERG (Homo sapiens, UniProt Q12809); assay: Photocontrol of hERG current, automated patch-clamp; details: 100 nM; 365 nm, 45 mW/cm^2, 250 s
T3 construct: expressed in transfected cells
T3 sequence (Q12809 whole entry): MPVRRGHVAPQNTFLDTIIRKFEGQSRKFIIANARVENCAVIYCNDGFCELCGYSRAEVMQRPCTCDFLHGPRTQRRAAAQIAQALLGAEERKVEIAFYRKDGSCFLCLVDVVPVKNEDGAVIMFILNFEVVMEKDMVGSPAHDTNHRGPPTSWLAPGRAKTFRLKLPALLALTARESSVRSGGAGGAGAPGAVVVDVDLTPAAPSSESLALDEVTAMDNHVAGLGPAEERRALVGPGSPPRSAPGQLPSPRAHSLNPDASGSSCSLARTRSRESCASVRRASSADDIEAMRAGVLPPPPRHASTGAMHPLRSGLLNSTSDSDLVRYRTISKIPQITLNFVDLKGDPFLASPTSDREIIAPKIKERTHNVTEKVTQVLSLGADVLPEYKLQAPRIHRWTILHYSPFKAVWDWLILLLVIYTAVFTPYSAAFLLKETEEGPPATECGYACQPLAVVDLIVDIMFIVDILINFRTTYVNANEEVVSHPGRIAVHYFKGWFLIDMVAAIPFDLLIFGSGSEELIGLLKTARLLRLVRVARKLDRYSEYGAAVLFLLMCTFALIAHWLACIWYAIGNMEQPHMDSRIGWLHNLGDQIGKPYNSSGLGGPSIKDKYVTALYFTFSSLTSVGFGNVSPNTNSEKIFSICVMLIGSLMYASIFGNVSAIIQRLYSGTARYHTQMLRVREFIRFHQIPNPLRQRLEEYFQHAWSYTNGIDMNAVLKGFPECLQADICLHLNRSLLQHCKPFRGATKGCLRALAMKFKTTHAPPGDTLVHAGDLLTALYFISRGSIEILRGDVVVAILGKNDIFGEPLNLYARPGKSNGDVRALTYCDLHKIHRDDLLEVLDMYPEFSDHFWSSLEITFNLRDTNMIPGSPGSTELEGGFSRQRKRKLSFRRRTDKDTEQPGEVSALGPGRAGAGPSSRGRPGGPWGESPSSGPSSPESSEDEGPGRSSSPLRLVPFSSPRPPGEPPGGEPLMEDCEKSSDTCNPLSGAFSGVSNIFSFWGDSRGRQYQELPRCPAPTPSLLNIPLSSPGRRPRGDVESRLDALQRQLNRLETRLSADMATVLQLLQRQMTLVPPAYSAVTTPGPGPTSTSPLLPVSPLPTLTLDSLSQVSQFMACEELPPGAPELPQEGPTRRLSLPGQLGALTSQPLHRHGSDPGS
Experimental: as §1, §2, §3

## charybdotoxin-Nvoc
hKV1.2
  UV-dependent effect on KV1.2 current: block

## BeKm1-Nvoc: BeKm1 (hERG blocker) caged with a Nvoc protecting group on K^18 (RPTDIKCSESYQCFPVCK(Nvoc)SRFGKTNGRCVNGFCDCF; ends and bridges not checked; UniProt Q9BKB7 22-57, looked up)
hNaV1.6
  effect of Nvoc photolysis by-product on hNaV1.6: inert
hERG
  UV-dependent effect on hERG current: block
